Source: the supplement of paper PMC10567573

B1: NET1 (parent)
chain: IKRTIRVLDVNNQSFREQEEPSNK
B2: DYRK1B (parent)
chain: YQGPGTRRLQEVLGVQTGGPGGRR

Variants of: B1
Assay: protein stability index of a GFP-peptide fusion (GPS, HEK-293T) (PSI 1-6); higher = more stable
Conditions: c terminus: a fixed tail appended
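Further: lentivirally expressed fusions sorted by FACS into six bins by GFP to DsRed ratio, PSI derived from sequencing read proportions per bin multiplied by bin number.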

Protein stability index of substitutions, site by site:
K2: S 3.29; F 3.04; G 4.51; H 4.01; T 4.8; L 3.72; I 3.05; R 2.93; C 4.05; W 3.11; V 3.33; N 4.34; P 4.47; D 4.83; Y 2.6; A 3.74; M 3.75; Q 4.63; E 4.01
R3: I 1.37; H 4.39; C 2.69; E 4.92; A 3.48; F 1.75; G 4.1; D 4.81; K 3.93
I1: M 3.63; D 4.58; P 3.94; V 3.54; G 3.67; T 4.49; A 3.82; R 3.73; N 3.61; L 3.27; Q 3.69; E 4.07; Y 4.1; W 3.45; C 4.76; H 4.81; K 4.14; S 3.99; F 4.03

Variants of: B2
Assay: as above
Conditions: c terminus: a fixed tail appended

Protein stability index: each site, then its substitutions
T6: D 3.79; K 2.33; L 2.37; S 2.54; H 2.67
G5: M 2.46; E 3.74; R 2.58; N 4.4; D 3.69; I 2.76; K 2.94
G19: Y 2.9; R 2.47; C 2.87; Q 3.05; P 3.66
G18: N 3.34; H 3.19; I 2.4
L9: S 4.65; C 3.21; T 4.27; N 3.61; K 4.06; Y 3.06
Q10: P 4.21; G 1.96; I 2.66; A 1.95
V12: Y 3.05; N 3.81; K 2.33; L 3.19; Q 3.5; D 4.34
L13: H 3.94; F 2.9; M 3.31
V15: F 3.62; L 2.68; G 3.63; A 3.69
E11: D 3.39; F 1.51
Q2: F 3.22; Y 3.7; K 4.18; W 2.95; H 2.26; T 3.12; C 2.66
P4: N 2.69; A 3.01; S 2.32; Y 2.35; D 2.81; M 1.91
Y1: T 4.72; S 4.96; F 3.84; K 3.84; L 4.32
R8: P 3.49; M 2.35
Q16: S 2.82; D 4.06; C 2.1; W 2.26; L 2.96
R24: T 3.02; G 3.4; M 2.5; W 2.73; P 3.45; L 2.87
R7: M 3.21; H 3.42; Q 3.76; S 3.45; G 3.37; P 3.5; I 3.57; T 3.54
G14: D 4.18; V 3.14; R 3.37; N 4.25; P 4.17; E 3.73; I 2.14; T 2.66; H 3.62; F 2.66
G3: T 3.52; N 3.71; K 2.79; Q 3.11; I 2.98; A 3.31
P20: D 3.51
G22: Q 3.48; I 3.75; D 3.39; L 2.94; N 3.44
R23: A 4.05; C 2.87; K 2.55; F 2.37
T17: W 2.49; F 2.85; A 3.27; Q 3.47; I 2.75
G21: H 3.33; I 3.15; D 3.88; S 3.04; E 3.13
